Laboratory results as given in patent US20260193366A1 (APOGEE THERAPEUTICS, published 2026).

T1: human IL-4Rα (human, UniProt P24394 26-232)
T1 construct: also called Hu IL-4Rα; hIL-4Rα
T1 sequence: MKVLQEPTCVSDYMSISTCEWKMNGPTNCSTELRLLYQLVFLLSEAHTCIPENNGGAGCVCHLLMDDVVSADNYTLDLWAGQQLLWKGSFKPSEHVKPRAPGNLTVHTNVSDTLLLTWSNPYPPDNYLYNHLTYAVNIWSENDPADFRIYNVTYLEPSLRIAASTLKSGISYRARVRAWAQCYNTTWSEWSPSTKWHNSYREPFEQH

T2: cynomolgus monkey IL-4Rα (cynomolgus monkey, UniProt P24394 26-231 (human entry), limits assumed)
T2 construct: also called Cyno IL-4Rα; cyIL-4Rα
T2 chain: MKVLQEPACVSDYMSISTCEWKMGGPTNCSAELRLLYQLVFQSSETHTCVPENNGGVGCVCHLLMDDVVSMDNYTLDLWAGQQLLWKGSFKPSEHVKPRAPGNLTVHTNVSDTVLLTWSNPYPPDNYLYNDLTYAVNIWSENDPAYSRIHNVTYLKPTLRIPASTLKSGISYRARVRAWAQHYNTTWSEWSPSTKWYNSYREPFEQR

T3: hIL-4Rα on cells (human, UniProt P24394 26-825)
T3 sequence: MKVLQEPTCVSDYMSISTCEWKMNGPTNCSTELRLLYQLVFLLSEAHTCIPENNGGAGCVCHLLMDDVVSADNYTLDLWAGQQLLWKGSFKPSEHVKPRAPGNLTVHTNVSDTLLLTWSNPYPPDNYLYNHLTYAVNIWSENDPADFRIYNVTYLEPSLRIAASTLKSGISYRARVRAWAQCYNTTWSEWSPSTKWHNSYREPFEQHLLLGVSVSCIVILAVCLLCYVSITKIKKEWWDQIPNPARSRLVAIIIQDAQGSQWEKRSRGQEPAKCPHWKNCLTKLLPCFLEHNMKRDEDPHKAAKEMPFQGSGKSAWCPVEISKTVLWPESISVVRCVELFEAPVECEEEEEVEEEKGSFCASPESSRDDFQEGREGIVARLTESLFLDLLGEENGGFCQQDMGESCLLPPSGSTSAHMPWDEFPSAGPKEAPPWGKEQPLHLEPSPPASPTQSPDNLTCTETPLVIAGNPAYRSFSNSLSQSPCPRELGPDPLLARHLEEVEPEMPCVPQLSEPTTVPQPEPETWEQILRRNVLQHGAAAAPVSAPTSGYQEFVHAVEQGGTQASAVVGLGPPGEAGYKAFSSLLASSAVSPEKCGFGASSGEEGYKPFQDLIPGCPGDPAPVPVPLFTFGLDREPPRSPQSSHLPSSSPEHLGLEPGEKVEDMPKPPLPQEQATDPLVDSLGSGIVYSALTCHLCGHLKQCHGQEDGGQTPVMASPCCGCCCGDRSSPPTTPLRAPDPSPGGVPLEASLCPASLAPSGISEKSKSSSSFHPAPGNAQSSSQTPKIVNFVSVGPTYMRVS


Experiments:
human IL-4Rα = biological target: T1, human IL-4Rα; test: SPR, Carterra LSA;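 also: antibodies captured on an anti-human Fc sensor chip, antigen injected at several concentrations, association and dissociation rates fitted with a 1:1 Langmuir model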
Description: (§1) Binding affinity (KD) of antibodies to human and cynomolgus monkey IL-4Rα was determined through surface plasmon resonance (SPR) using a Carterra LSA. Briefly, an HC30M sensor chip that was previously functionalized with a polyclonal mixture of goat anti-human Fc antibody and used to capture purified antibodies at a level between 100-1000 RLU. […] Regeneration of the chip between different concentrations of antigen was performed with 200 mM phosphoric acid and antibody was captured again as previously described. Association and dissociation rate constants were subsequently determined through fitting to a 1:1 Langmuir binding model using the Kinetics Software from Carterra from which a KD value was derived.

cynomolgus monkey IL-4Rα = biological target: T2, cynomolgus monkey IL-4Rα; test: SPR, Carterra LSA;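 also: antibodies captured on an anti-human Fc sensor chip, antigen injected at several concentrations, association and dissociation rates fitted with a 1:1 Langmuir model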
Description: as §1

hIL-4Rα on cells [1] = biological target: T3, hIL-4Rα on cells; test: cell-based or functional assay
hIL-4Rα on cells [2] = biological target: T3, hIL-4Rα on cells; test: cell-based or functional assay; remark: listed apart in the source
hIL-4Rα on cells [3] = biological target: T3, hIL-4Rα on cells; test: cell-based or functional assay; remark: listed apart in the source
hIL-4Rα on cells [4] = biological target: T3, hIL-4Rα on cells; test: FACS on HEK293 cells, competitor biotin-hIL-4;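 also: HEK293 cells stably co-expressing hIL-13Rα and hIL-4Rα, stained for 1 h at 4 °C, read-out as mean fluorescence intensity by flow cytometry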
Description: Briefly, HEK293 previously transduced to stably express both hIL-13Rα and hIL-4Rα were cultured and harvested. Cells were seeded at 200,000 cells in 100 uL per well. Cells were washed and the supernatant discarded. […] The cells were stained in this mixture at 4° C. for 1 hour. […] Cells were incubated 4° C. for 1 hour, protected from light. Cells were then washed and the MFI of cells in each well were recorded by FACS using a BD FACSCanto II. Subsequent data were analyzed using GraphPad Prism.

hIL-4Rα on cells [5] = biological target: T3, hIL-4Rα on cells; test: FACS on HEK293 cells, competitor biotin-hIL-13;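 also: stably transduced cells co-expressing both receptor chains, stained cold, with cell-bound signal read as mean fluorescence intensity by flow cytometry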

KD Relative to Dupilumab (human IL-4Rα) | Kd (human IL-4Rα) [nM] | KD Relative to Dupilumab (cynomolgus monkey IL-4Rα) | Kd (cynomolgus monkey IL-4Rα) [nM] | Relative Inhibition of IL-4 induced pSTAT6 IC50 (hIL-4Rα on cells [1]) | Relative Inhibition of IL-13 induced pSTAT6 IC50 (hIL-4Rα on cells [1]) | Relative Inhibition of IL-4 induced TARC IC50 (hIL-4Rα on cells [2]) | Relative Inhibition of IL-13 induced TARC IC50 (hIL-4Rα on cells [2]) | Relative Inhibition of IL-4 induced TF-1 Proliferation IC50 (hIL-4Rα on cells [3]) | Relative Inhibition of IL-13 induced TF-1 Proliferation IC50 (hIL-4Rα on cells [3]) | Relative Blockade of IL-4 Binding IC50 (hIL-4Rα on cells [4]) | Relative Blockade of IL-13 Binding IC50 (hIL-4Rα on cells [5]) | Binder
0.67 | 0.00762 | 0.1 | 63.3 | 0.483 relative to dupilumab | 0.475 relative to dupilumab | 0.557 relative to dupilumab | 0.579 relative to dupilumab | 0.823 relative to dupilumab | 0.732 relative to dupilumab | 1.07 relative to dupilumab | 0.793 relative to dupilumab | Construct 23 (mAb431) (antibody, V domains shown, VH/VL only) VH: EVQLVESGGGLEQPGGSLRLSCAGSGFTFRDFAMTWVRQAPGKGLEWVSSISGGGGSTYYADSVKGRFTISRDNSKNTLYLQMNSLRAEDTAVYYCAKDRLSVTVRPRYYGLDVWGQGTTVTVSS VL: DIVMTQSPLSLPVTPGEPASISCRSSQSVLYSIGKNYVDWYLQKSGQSPQLLIYLGSQRATGVPDRFSGSGSGTDFTLKISRVEAEDVGFYYCMQSLTSPYTFGQGTKLEIK
0.78 | 0.00883 | 0.26 | 166 | 0.661 relative to dupilumab | 0.627 relative to dupilumab | 0.763 relative to dupilumab | 1.73 relative to dupilumab | 0.7 relative to dupilumab | 0.83 relative to dupilumab | 0.763 relative to dupilumab | 0.486 relative to dupilumab | Construct 26 (mAb434) (antibody, IgG4, V domains shown, VH/VL only) VH: EVQLVESGGGLEQPGGSLRLSCAGSGFTFRDFAMTWVRQAPGKGLEWVSSISGGGGSTYYADSVKGRFTISRDNSKNTLYLQMNSLRAEDTAVYYCAKDRLSIAVRPRYYGLDVWGQGTTVTVSS VL: DIVMTQSPLSLPVTPGEPASISCTASQSLLYSIGYNYVDWYLQKSGQSPQLLIYLGNKRASGVPDRFSGSGSGTDFTLKISRVEAEDVGFYYCMQSLTSPYTFGQGTKLEIK
0.99 | 0.0112 | 0.29 | 180 | 0.766 relative to dupilumab | 2.71 relative to dupilumab | 1.92 relative to dupilumab | 1.65 relative to dupilumab | 0.948 relative to dupilumab | 1.11 relative to dupilumab | 1.29 relative to dupilumab | 1.25 relative to dupilumab | Construct 35 (mAb467) (antibody, IgG4, V domains shown, VH/VL only) VH: EVQLVESGGGLEQPGGSLRLSCAGSGFTFRTYAMTWVRQAPGKGLEWVSSISGSGGNTYYADSVKGRFTISRDNSKNTLYLQMNSLRAEDTAVYYCAKDRVSITIRPRYYGLDVWGQGTTVTVSS VL: DIVMTQSPLSLPVTPGEPASISCTSSQSLLYSIGKNYVDWYLQKSGQSPQLLIYEGNNRATGVPDRFSGSGSGTDFTLKISRVEAEDVGFYYCMQSLTSPYTFGQGTKLEIK
1.01 | 0.0114 | 0.53 | 334 | 0.464 relative to dupilumab | 2.42 relative to dupilumab | 4.32 relative to dupilumab | 1.35 relative to dupilumab | 1.46 relative to dupilumab | 1.55 relative to dupilumab | 1.23 relative to dupilumab | 1.21 relative to dupilumab | Construct 34 (mAb459) (antibody, IgG4, V domains shown, VH/VL only) VH: EVQLVESGGGLEQPGGSLRLSCAGSGFTFRDFAMTWVRQAPGKGLEWVSSISGSGDNIYYADSVKGRFTISRDNSKNTLYLQMNSLRAEDTAVYYCAKDRLSKTIRPRYYGLDVWGQGTTVTVSS VL: DIVMTQSPLSLPVTPGEPASISCRSSQGLLYSIGYNYVDWYLQKSGQSPQLLIYLGNKRASGVPDRFSGSGSGTDFTLKISRVEAEDVGFYYCMQALDTPYTFGQGTKLEIK
0.78 | 0.00875 | 0.05 | 33.9 | 0.888 relative to dupilumab | 1.59 relative to dupilumab | 3.2 relative to dupilumab | 1.07 relative to dupilumab | 1.05 relative to dupilumab | 0.926 relative to dupilumab | 1.01 relative to dupilumab | 1.21 relative to dupilumab | Construct 33 (mAb450) (antibody, IgG4, V domains shown, VH/VL only) VH: EVQLVESGGGLEQPGGSLRLSCAGSGFTFRDFAMTWVRQAPGKGLEWVSSISGSGGNIYYADSVKGRFTISRDNSKNTLYLQMNSLRAEDTAVYYCAKDRVSITIRPRYYGLDVWGQGTTVTVSS VL: DIVMTQSPLSLPVTPGEPASISCTASQSLLYSIGYNYVDWYLQKSGQSPQLLIYLGSKRASGVPDRFSGSGSGTDFTLKISRVEAEDVGFYYCMQALGSPYTFGQGTKLEIK
0.94 | 0.0107 | 1.12 | 703 | 1.33 relative to dupilumab | 1.82 relative to dupilumab | 1.17 relative to dupilumab | 1.78 relative to dupilumab | 2.04 relative to dupilumab | 1.31 relative to dupilumab | 1.36 relative to dupilumab | 1.09 relative to dupilumab | Construct 25 (mAb433) (antibody, IgG4, V domains shown, VH/VL only) VH: EVQLVESGGGLEQPGGSLRLSCAGSGFTFRDFAMTWVRQAPGKGLEWVSSISGSGDNIYYADSVKGRFTISRDNSKNTLYLQMNSLRAEDTAVYYCAKDRLSKTIRPRYYGLDVWGQGTTVTVSS VL: DIVMTQSPLSLPVTPGEPASISCTASQSLLYSIGYNYLDWYLQKSGQSPQLLIYEGNKRASGVPDRFSGSGSGTDFTLKISRVEAEDVGFYYCMQSLTSPYTFGQGTKLEIK
1.12 | 0.0126 | 0.28 | 176 | 0.676 relative to dupilumab | 0.38 relative to dupilumab | 0.547 relative to dupilumab | 1.83 relative to dupilumab | 0.962 relative to dupilumab | 0.773 relative to dupilumab | 0.99 relative to dupilumab | 0.592 relative to dupilumab | Construct 27 (mAb435) (antibody, IgG4, V domains shown, VH/VL only) VH: EVQLVESGGGLEQPGGSLRLSCAGSGFTFTDFAMTWVRQAPGKGLEWVSSISGSGGNKYYADSVKGRFTISRDNSKNTLYLQMNSLRAEDTAVYYCAKDRLSVTVRPRYYGLDVWGQGTTVTVSS VL: DIVMTQSPLSLPVTPGEPASISCTASQSLLYSIGYNYVDWYLQKSGQSPQLLIYLGNKRASGVPDRFSGSGSGTDFTLKISRVEAEDVGFYYCMQSLTSPYTFGQGTKLEIK
0.69 | 0.00777 | 0.09 | 54.7 | 0.999 relative to dupilumab | 0.497 relative to dupilumab | 0.58 relative to dupilumab | 1.81 relative to dupilumab | 1.19 relative to dupilumab | 0.634 relative to dupilumab | 0.849 relative to dupilumab | 0.611 relative to dupilumab | Construct 28 (mAb436) (antibody, IgG4, V domains shown, VH/VL only) VH: EVQLVESGGGLEQPGGSLRLSCAGSGFTFRDFAMTWVRQAPGKGLEWVSSVSGSGGNTYYADSVKGRFTISRDNSKNTLYLQMNSLRAEDTAVYYCAKDRLSVTVRPRYYGLDVWGQGTTVTVSS VL: DIVMTQSPLSLPVTPGEPASISCTSSQSLLYSIGYNYVDWYLQKSGQSPQLLIYLGNKRASGVPDRFSGSGSGTDFTLKISRVEAEDVGFYYCMQSLQTPYTFGQGTKLEIK
